Experimental data: patent US20230235058A1 (OXFORD UNIVERSITY INNOVATION, published 2023)

T1: soluble cynomolgus macaque BTLA extracellular domain (BTLA K31-R151) (cynomolgus macaque)
T1 construct: also called cynomolgus BTLA; cyno BTLA
T1 chain: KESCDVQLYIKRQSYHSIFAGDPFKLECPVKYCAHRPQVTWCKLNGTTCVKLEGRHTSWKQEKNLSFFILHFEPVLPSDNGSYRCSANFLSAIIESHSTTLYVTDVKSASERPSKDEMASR

T2: human FcγR2B (human, UniProt P31994 43-217)
T2 construct: extracellular domain; also called hFcγR2B; CD32B
T2 sequence (looked up): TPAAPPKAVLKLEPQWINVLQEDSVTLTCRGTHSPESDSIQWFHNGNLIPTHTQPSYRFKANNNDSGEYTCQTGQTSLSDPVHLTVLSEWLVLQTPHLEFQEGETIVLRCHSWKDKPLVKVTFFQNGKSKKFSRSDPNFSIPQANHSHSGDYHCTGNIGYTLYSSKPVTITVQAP

T3: human FcγR2A 131R (human, UniProt P12318 34-217)
T3 construct: extracellular domain
T3 sequence (looked up): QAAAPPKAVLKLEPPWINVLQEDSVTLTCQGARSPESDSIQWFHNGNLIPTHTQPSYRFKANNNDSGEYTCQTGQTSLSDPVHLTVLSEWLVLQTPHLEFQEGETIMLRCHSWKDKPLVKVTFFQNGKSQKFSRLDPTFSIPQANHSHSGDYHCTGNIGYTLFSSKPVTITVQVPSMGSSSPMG

T4: human FcγR2A 131H (human, UniProt P12318 34-217)
T4 construct: extracellular domain
T4 sequence (looked up): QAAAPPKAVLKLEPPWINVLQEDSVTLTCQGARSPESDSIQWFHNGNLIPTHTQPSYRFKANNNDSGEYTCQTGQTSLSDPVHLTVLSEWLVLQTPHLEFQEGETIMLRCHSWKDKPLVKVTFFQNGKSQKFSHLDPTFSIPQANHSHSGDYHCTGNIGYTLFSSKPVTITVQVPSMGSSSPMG


Tests used:
[1] = target: T5, full length human BTLA expressed on cells (human, UniProt Q7Z6A9 31-289); experiment: cell-based or functional assay
[2] = target: chimeric BTLA of humanised-BTLA mice (human extracellular region, murine transmembrane and signaling … (human; mouse, UniProt Q7TSA3 184-306, limits assumed); experiment: cell-based or functional assay
[3] = target: T6, monomeric soluble human BTLA extracellular domain (BTLA K31-R151) (human, UniProt Q7Z6A9 31-151); experiment: SPR 37C, mAb captured, BTLA ECD analyte;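 further: Anti-BTLA mouse antibodies captured on a sensor chip via polyclonal anti-mouse IgG, isotype control antibody in reference channel, rates fitted after reference and blank subtraction to derive Kd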
T6 construct: also called hBTLA; monomeric BTLA
Experimental: (§1) Mouse antibody capture kit (GE Healthcare) was used to coat a Series S CMS Sensor Chip (GE Healthcare) with polyclonal anti-mouse IgG. Anti-BTLA antibody was then captured onto the biosensor surface and a negative control antibody (clone Mopc21; Biolegend) captured in the reference channel. […] Association and dissociation rates were fitted using BiaEvaluation Software (GE Healthcare) after reference and blank subtractions, and dissociation constants were calculated (FIG. 1b).

[4] = target: T1, soluble cynomolgus macaque BTLA …; experiment: SPR 37C, mAb captured, BTLA ECD analyte;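 further: Anti-BTLA mouse antibodies captured on a sensor chip via polyclonal anti-mouse IgG, isotype control antibody in reference channel, rates fitted after reference and blank subtraction to derive Kd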
Experimental: as §1

human FcγR2B = target: T2, human FcγR2B; experiment: SPR 37C, steady state;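 further: fc variants captured on chip-bound human BTLA ectodomain, recombinant FcγR ectodomains injected as analyte at varied concentrations, double-referenced equilibrium binding fitted to Langmuir model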
Experimental: (§2) For the low affinity FcγRs (FcγR2A, FcγR2B, FcγR3A and FcγR3B) the interactions were assessed by surface plasmon resonance with the recombinantly expressed FcRs (extracellular domains only) as analyte. Briefly, recombinant human BTLA extracellular domain (BTLA^K31-R151) was covalently immobilised to both flow cells of all channels of a CMS Series S sensor chip using the GE Healthcare Amine coupling kit. The 2.8.6 Fc variant to be assessed was then captured (approx. 500-1000 response units) in flow cell 2 of each channel. Steady state affinity analysis was then performed by injecting varying concentrations of FcR in multiple cycles and measuring equilibrium binding. Double referencing was used (subtracting the signal in the reference Fc1 and also subtracting the signal from a blank zero concentration injection). KDs were calculated from the Langmuir curves (plotting equilibrium binding against analyte concentration to determine the concentration required for half maximal binding).

human FcγR3A 158V = target: T7, human FcγR3A 158V (human, UniProt P08637 17-208); experiment: SPR 37C, steady state;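 further: fc variants captured on chip-bound human BTLA ectodomain, recombinant FcγR ectodomains injected as analyte at varied concentrations, double-referenced equilibrium binding fitted to Langmuir model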
T7 construct: extracellular domain
Experimental: as §2

human FcγR2A 131R = target: T3, human FcγR2A 131R; experiment: SPR 37C, steady state;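 further: fc variants captured on chip-bound human BTLA ectodomain, recombinant FcγR ectodomains injected as analyte at varied concentrations, double-referenced equilibrium binding fitted to Langmuir model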
Experimental: as §2

human FcγR3B = target: T8, human FcγR3B (human, UniProt O75015 17-200, limits assumed); experiment: SPR 37C, steady state;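 further: fc variants captured on chip-bound human BTLA ectodomain, recombinant FcγR ectodomains injected as analyte at varied concentrations, double-referenced equilibrium binding fitted to Langmuir model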
T8 construct: extracellular domain; also called CD16B
Experimental: as §2

human FcγR2A 131H = target: T4, human FcγR2A 131H; experiment: SPR 37C, steady state
Experimental: as §2

human FcγR3A 158F = target: T9, human FcγR3A 158F (human, UniProt P08637 17-208); experiment: SPR 37C, steady state
T9 construct: extracellular domain
Experimental: as §2

human FcRn = target: T10, human FcRn (human, UniProt P55899 24-297; P61769 21-119, limits assumed, biotinylated); experiment: SPR, pH6.0
T10 construct: bought; also called FcRn pH6
Experimental: For the high affinity FcR interactions (FcγR1A, and also FcRn assessed at pH6.0) the binding was assessed in a kinetic analysis with antibody as analyte. […] Reference flow cell 1 was left empty in all channels. Purified antibody was then injected at a single concentration and on/off rates calculated by curve fitting on BiaEvaluation software. […] IgG Fc has two binding sites for FcRn so this assessment performed with FcRn immobilised at high density provides an avidity estimate for the interaction rather than a true KD.

human FcγR1A = target: T11, human FcγR1A (human, UniProt P12314 16-288, biotinylated); experiment: SPR 37C, kinetic
T11 construct: bought; also called CD64A
Experimental: For the high affinity FcR interactions (FcγR1A, and also FcRn assessed at pH6.0) the binding was assessed in a kinetic analysis with antibody as analyte. […] Reference flow cell 1 was left empty in all channels. Purified antibody was then injected at a single concentration and on/off rates calculated by curve fitting on BiaEvaluation software.

[5] = target: T5, full length human BTLA expressed on …; experiment: cell-based or functional assay; remark: listed apart in the source
Wherever AntiCD3/CD28 (CD4 T cell proliferation) repeat 1 is given: test concentration or dose not given here.
Wherever AntiCD3/CD28 (CD4 T cell proliferation) repeat 2 is given: test concentration or dose not given here.
Wherever AntiCD3/CD28 (CD69+ CD4 T cells) repeat 1 is given: test concentration or dose not given here.
Wherever AntiCD3/CD28 (CD69+ CD4 T cells) repeat 2 is given: test concentration or dose not given here.
Wherever MLR (CD4 T cell proliferation) repeat 1 is given: test concentration or dose not given here.
Wherever MLR (CD4 T cell proliferation) repeat 2 is given: test concentration or dose not given here.
Wherever T cell reporter (NFκB signaling) is given: test concentration or dose not given here.

T7 sequence (P08637 17-208 F176V): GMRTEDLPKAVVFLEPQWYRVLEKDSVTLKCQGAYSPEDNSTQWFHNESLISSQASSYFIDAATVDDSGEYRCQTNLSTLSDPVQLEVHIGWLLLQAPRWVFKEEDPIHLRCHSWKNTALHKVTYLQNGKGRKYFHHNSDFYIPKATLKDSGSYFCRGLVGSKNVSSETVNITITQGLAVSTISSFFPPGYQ
chimeric BTLA of humanised-BTLA mice (human extracellular region, murine transmembrane and signaling …, sequence (Q7TSA3 other isoform, or with tags, fused parts or gaps mutant limits assumed): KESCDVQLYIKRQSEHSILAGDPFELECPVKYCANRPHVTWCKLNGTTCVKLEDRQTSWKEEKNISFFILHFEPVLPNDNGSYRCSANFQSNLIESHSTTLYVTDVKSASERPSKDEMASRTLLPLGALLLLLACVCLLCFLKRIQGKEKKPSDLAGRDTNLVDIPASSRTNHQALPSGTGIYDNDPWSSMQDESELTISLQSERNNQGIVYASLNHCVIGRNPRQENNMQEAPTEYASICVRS
T9 sequence (P08637 17-208): as the sequence (P08637 17-208 F176V) above, with V160F counted along it
T8 sequence (O75015 17-200 limits assumed): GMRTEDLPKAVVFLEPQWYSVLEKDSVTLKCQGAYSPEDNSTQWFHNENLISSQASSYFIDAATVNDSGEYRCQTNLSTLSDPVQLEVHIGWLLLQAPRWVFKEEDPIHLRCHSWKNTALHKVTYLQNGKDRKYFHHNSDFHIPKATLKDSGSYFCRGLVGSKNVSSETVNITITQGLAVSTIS
T11 sequence (P12314 16-288): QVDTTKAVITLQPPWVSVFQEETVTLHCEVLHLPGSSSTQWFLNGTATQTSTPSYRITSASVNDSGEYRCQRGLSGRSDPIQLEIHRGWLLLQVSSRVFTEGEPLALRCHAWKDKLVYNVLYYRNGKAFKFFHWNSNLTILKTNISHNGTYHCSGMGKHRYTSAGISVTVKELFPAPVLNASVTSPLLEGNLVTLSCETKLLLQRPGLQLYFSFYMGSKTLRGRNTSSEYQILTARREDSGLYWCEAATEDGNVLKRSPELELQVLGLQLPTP

T cell reporter (NFκB signaling) [1] [% inhibition]	AntiCD3/CD28 (CD4 T cell proliferation) repeat 1 [2] [% inhibition]	AntiCD3/CD28 (CD4 T cell proliferation) repeat 2 [2] [% inhibition]	AntiCD3/CD28 (CD69+ CD4 T cells) repeat 1 [2] [% inhibition]	AntiCD3/CD28 (CD69+ CD4 T cells) repeat 2 [2] [% inhibition]	MLR (CD4 T cell proliferation) repeat 1 [2] [% inhibition]	MLR (CD4 T cell proliferation) repeat 2 [2] [% inhibition]	Kd [3] [µM]	koff [3] [s⁻¹]	kon [3] [M⁻¹ s⁻¹]	Kd [4] [µM]	Kd (human FcγR2B) [µM]	Kd (human FcγR2A 131R) [µM]	Kd (human FcγR2A 131H) [µM]	Binder	other results
26	19	21	53	61	31	35	0.0017	0.00107	630000	0.00971				6.2 (antibody, IgG1, V domains shown, mIgG1; also called clone 6.2; parent clone 6.2) VH: EVKLVESGGGLVKPGGSLKLSCAASGFTLSSYGMSWVRQIPEKRLEWVASIRSDGNTYYPDSVKGRFIISRDNARNILYLQMSSLRSEDTAMYYCTRGGYYGSSPYYWGQGTTLTVSS VL: DIVMSQSPSSLPVSVGEKISMTCKSSQSLLYSSNQKNYLAWYQQKPGQSPKLLIYWASTRDSGVPDRFIGSGSGTDFTLTINSVKAEDLAVYYCQQYYNYLTFGAGTKLELK	
											80.1	22	113	humanised 2.8.6 hIgG1 D265A S267E A330R (antibody, Fc variant with the variable domains of humanised 2.8.6; copies: 2 + 2) heavy: QVTLKESGPALVKPTQTLTLTCTVSGFSLTTYGVHWIRQPPGKALEWLGVMWPGGRTSYNPSLKSRLTITKDNSKSQVVLTMTNMDPVDTATYYCVRGDYEYDYYAMDYWGQGTLVTVSSASTKGPSVFPLAPSSKSTSGGTAALGCLVKDYFPEPVTVSWNSGALTSGVHTFPAVLQSSGLYSLSSVVTVPSSSLGTQTYICNVNHKPSNTKVDKKVEPKSCDKTHTCPPCPAPELLGGPSVFLFPPKPKDTLMISRTPEVTCVVVAVEHEDPEVKFNWYVDGVEVHNAKTKPREEQYNSTYRVVSVLTVLHQDWLNGKEYKCKVSNKALPRPIEKTISKAKGQPREPQVYTLPPSREEMTKNQVSLTCLVKGFYPSDIAVEWESNGQPENNYKTTPPVLDSDGSFFLYSKLTVDKSRWQQGNVFSCSVMHEALHNHYTQKSLSLSPGK light: EIVLTQSPATLSLSPGERATLSCRASSSVSYMHWYQQKPGQAPRPLIYATSNRATGIPARFSGSGSGTDYTLTISSLEPEDFAVYYCHQWSSNPYTFGQGTKLEIKRTVAAPSVFIFPPSDEQLKSGTASVVCLLNNFYPREAKVQWKVDNALQSGNSQESVTEQDSKDSTYSLSSTLTLSKADYEKHKVYACEVTHQGLSSPVTKSFNRGEC	binding result (human FcγR3A 158V): no binding; binding result (human FcγR3B): no binding; binding result (human FcγR3A 158F): no binding
											82.5	9.56	4.86	humanised 2.8.6 hIgG1 delta ab (antibody) chain 1: QVTLKESGPALVKPTQTLTLTCTVSGFSLTTYGVHWIRQPPGKALEWLGVMWPGGRTSYNPSLKSRLTITKDNSKSQVVLTMTNMDPVDTATYYCVRGDYEYDYYAMDYWGQGTLVTVSSASTKGPSVFPLAPSSKSTSGGTAALGCLVKDYFPEPVTVSWNSGALTSGVHTFPAVLQSSGLYSLSSVVTVPSSSLGTQTYICNVNHKPSNTKVDKKVEPKSCDKTHTCPPCPAPPVAGPSVFLFPPKPKDTLMISRTPEVTCVVVDVSHEDPEVKFNWYVDGVEVHNAKTKPREEQYNSTYRVVSVLTVLHQDWLNGKEYKCKVSNKGLPSSIEKTISKAKGQPREPQVYTLPPSRDELTKNQVSLTCLVKGFYPSDIAVEWESNGQPENNYKTTPPVLDSDGSFFLYSKLTVDKSRWQQGNVFSCSVMHEALHNHYTQKSLSLSP chain 2: EIVLTQSPATLSLSPGERATLSCRASSSVSYMHWYQQKPGQAPRPLIYATSNRATGIPARFSGSGSGTDYTLTISSLEPEDFAVYYCHQWSSNPYTFGQGTKLEIKRTVAAPSVFIFPPSDEQLKSGTASVVCLLNNFYPREAKVQWKVDNALQSGNSQESVTEQDSKDSTYSLSSTLTLSKADYEKHKVYACEVTHQGLSSPVTKSFNRGEC	Kd (human FcγR3A 158V): 494 µM; Kd (human FcγR3B): 2820 µM; Kd (human FcγR3A 158F): 722 µM; avidity (FcRn pH6) (human FcRn): 14.8 nM
											131	79.3	82.2	humanised 2.8.6 hIgG1 delta ac (antibody) chain 1: QVTLKESGPALVKPTQTLTLTCTVSGFSLTTYGVHWIRQPPGKALEWLGVMWPGGRTSYNPSLKSRLTITKDNSKSQVVLTMTNMDPVDTATYYCVRGDYEYDYYAMDYWGQGTLVTVSSASTKGPSVFPLAPSSKSTSGGTAALGCLVKDYFPEPVTVSWNSGALTSGVHTFPAVLQSSGLYSLSSVVTVPSSSLGTQTYICNVNHKPSNTKVDKKVEPKSCDKTHTCPPCPAPPVAGGPSVFLFPPKPKDTLMISRTPEVTCVVVDVSHEDPEVKFNWYVDGVEVHNAKTKPREEQYNSTYRVVSVLTVLHQDWLNGKEYKCKVSNKGLPSSIEKTISKAKGQPREPQVYTLPPSRDELTKNQVSLTCLVKGFYPSDIAVEWESNGQPENNYKTTPPVLDSDGSFFLYSKLTVDKSRWQQGNVFSCSVMHEALHNHYTQKSLSLSP chain 2: EIVLTQSPATLSLSPGERATLSCRASSSVSYMHWYQQKPGQAPRPLIYATSNRATGIPARFSGSGSGTDYTLTISSLEPEDFAVYYCHQWSSNPYTFGQGTKLEIKRTVAAPSVFIFPPSDEQLKSGTASVVCLLNNFYPREAKVQWKVDNALQSGNSQESVTEQDSKDSTYSLSSTLTLSKADYEKHKVYACEVTHQGLSSPVTKSFNRGEC	Kd (human FcγR3A 158V): 96.4 µM; Kd (human FcγR3A 158F): 344 µM; Kd (human FcγR1A): 2.85 µM; avidity (FcRn pH6) (human FcRn): 11.9 nM
24	10	13	24	22	9	8	0.437	0.0838	192000	0.654				27G9 (antibody, IgG1, V domains shown, mIgG1) VH: EVQLQQSVAELVRPGASVKLSCTASGFNIKNTYMHWVKQRPEQGLEWIGRIDPANGNTKYAPKFQGKATITADTSSNTAYLQLSSLTSEDTAIYYCALTYYGSSQYYFDYWGQGTTLTVSS VL: not shown	
20	4	0	19	17	9	-5	2.2	2.02	921000	0.81				26F3 (antibody, IgG1, V domains shown, mIgG1) VH: EVQLQQSVAELVRPGASVKLSCTASGFNIKNTYMYWVKQRPEQGLEWIGRIDPANGNTKYAPKFQGKATITADTSSNTAYLQLSSLTSEDTAIYYCALLYYGSSYDYFDYWGQGTTLTVSS VL: not shown	
														hHVEM-mFc fusion protein (human HVEM extracellular domain fused to mouse IgG1 Fc) (Fc fusion) LPSCKEDEYPVGSECCPKCSPGYRVKEACGELTGTVCEPCPPGTYIAHLNGLSKCLQCQMCDPAMGLRASRNCSRTENAVCGCSPGHFCIVQDGDHCAACRAYATSSPGQRVQKGGTESQDTLCQNCPPGTFSPNGTLEECQHQTKCSWLVTKAGAGTSSSHLVPRGSGSKPSISTVPEVSSVFIFPPKPKDVLTITLTPKVTCVVVDISKDDPEVQFSWFVDDVEVHTAQTQPREEQFNSTFRSVSELPIMHQDWLNGKEFKCRVNSAAFPAPIEKTISKTKGRPKAPQVYTIPPPKEQMAKDKVSLTCMITDFFPEDITVEWQWNGQPAENYKNTQPIMDTDGSYFVYSKLNVQKSNWEAGNTFTCSVLHEGLHNHHTEKSLSHSPGKHHHHHH	inhibition of NFkB signal, IC50 [5]: 0.0096 µM; maximal inhibition of NFkB signal [5]: 27%
